The assay addresses acetylcholine-binding protein (AChBP) from Lymnaea stagnalis, carboxy-terminal hexahistidine-tagged (Lymnaea stagnalis, UniProt P58154 20-229). Description: SPR.

Chain of acetylcholine-binding protein (AChBP) from Lymnaea stagnalis, carboxy-terminal hexahistidine-tagged (P58154 20-229): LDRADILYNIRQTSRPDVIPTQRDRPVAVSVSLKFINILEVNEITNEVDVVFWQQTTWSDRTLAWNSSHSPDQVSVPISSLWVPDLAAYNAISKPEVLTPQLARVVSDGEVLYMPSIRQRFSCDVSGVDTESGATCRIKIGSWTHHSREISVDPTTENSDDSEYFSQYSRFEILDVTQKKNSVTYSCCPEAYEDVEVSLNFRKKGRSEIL

B1: α-bungarotoxin (natural protein)
chain: IVCHTTATSPISAVTCPPGENLCYRKMWCDAFCSSRGKVVELGCAATCPSKKPYEEVTCCSTDKCNPHPKQRPG
As to B1, the binding result was “binds”.

The values above are taken from paper PMC2684811 (Analytical biochemistry, 2009).
